Article PMC6412040
Each block holds one substance with its values, some of them ahead of it.

Assays:
[1] = target: USP37^mUIM1,2,3 (Danio rerio USP37 312–927 with mutations in all three UIMs) (Danio rerio) (UniProt E7F6T8)
[2] = target: USP37^wt (isolated catalytic domain of USP37 from Danio rerio, residues 312–927) (Danio rerio) (UniProt E7F6T8)
USP37^wt (isolated catalytic domain of USP37 from Danio rerio, residues 312–927) (Danio rerio), sequence (E7F6T8 312-927): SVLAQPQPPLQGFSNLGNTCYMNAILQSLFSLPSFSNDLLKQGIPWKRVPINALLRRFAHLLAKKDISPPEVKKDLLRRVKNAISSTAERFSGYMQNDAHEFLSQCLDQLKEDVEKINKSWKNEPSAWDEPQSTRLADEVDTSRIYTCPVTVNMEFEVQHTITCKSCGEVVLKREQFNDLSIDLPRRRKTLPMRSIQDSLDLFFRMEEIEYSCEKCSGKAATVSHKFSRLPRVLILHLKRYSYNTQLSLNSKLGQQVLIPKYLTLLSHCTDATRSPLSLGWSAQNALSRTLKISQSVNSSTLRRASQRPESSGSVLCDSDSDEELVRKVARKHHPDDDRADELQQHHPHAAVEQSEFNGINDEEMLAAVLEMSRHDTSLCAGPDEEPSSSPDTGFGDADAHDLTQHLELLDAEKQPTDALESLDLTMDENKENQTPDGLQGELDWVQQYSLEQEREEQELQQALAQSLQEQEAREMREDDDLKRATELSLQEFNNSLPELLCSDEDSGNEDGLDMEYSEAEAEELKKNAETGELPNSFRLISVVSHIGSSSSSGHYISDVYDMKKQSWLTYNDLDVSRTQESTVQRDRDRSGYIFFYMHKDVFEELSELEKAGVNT

USP37^mUIM1,2,3 (Danio rerio USP37 312–927 with mutations in all three UIMs) (Danio rerio), sequence (E7F6T8 312-927 V680G/S684A/A774G/S778A/A796G/S800A): as the sequence (E7F6T8 312-927) above, with V369G, S373A, A463G, S467A, A485G, S489A counted along it

KM of cleavage of K11-linked di-Ub (1 part IQF di-Ub, 4 parts unlabeled chain), Michaelis-Menten analysis, 25 nM enzyme [1]: 19 µM | kcat of cleavage of K11-linked di-Ub (1 part IQF di-Ub, 4 parts unlabeled chain), Michaelis-Menten analysis [1]: 0.072 s⁻¹ | KM of cleavage of K11-linked di-Ub (1 part IQF di-Ub, 4 parts unlabeled chain), Michaelis-Menten analysis, 25 nM enzyme [2]: 11 µM | kcat of cleavage of K11-linked di-Ub (1 part IQF di-Ub, 4 parts unlabeled chain), Michaelis-Menten analysis [2]: 0.19 s⁻¹
Substance: K11-linked di-Ub (from UniProt P0CG48 1-76; P0CG48 1-76) (complex)

KM of cleavage of K48-linked di-Ub (1 part IQF di-Ub, 4 parts unlabeled chain), Michaelis-Menten analysis, 1.25 nM enzyme [1]: 0.72 µM | kcat of cleavage of K48-linked di-Ub (1 part IQF di-Ub, 4 parts unlabeled chain), Michaelis-Menten analysis [1]: 0.015 s⁻¹ | KM of cleavage of K48-linked di-Ub (1 part IQF di-Ub, 4 parts unlabeled chain), Michaelis-Menten analysis, 1.25 nM enzyme [2]: 0.4 µM | kcat of cleavage of K48-linked di-Ub (1 part IQF di-Ub, 4 parts unlabeled chain), Michaelis-Menten analysis [2]: 0.23 s⁻¹
Substance: K48-linked di-Ub (from UniProt P0CG48 1-76; P0CG48 1-76) (complex)

KM of cleavage of K63-linked di-Ub (1 part IQF di-Ub, 4 parts unlabeled chain), Michaelis-Menten analysis, 12.5 nM enzyme [1]: 3.6 µM | kcat of cleavage of K63-linked di-Ub (1 part IQF di-Ub, 4 parts unlabeled chain), Michaelis-Menten analysis [1]: 0.008 s⁻¹ | KM of cleavage of K63-linked di-Ub (1 part IQF di-Ub, 4 parts unlabeled chain), Michaelis-Menten analysis, 12.5 nM enzyme [2]: 1.7 µM | kcat of cleavage of K63-linked di-Ub (1 part IQF di-Ub, 4 parts unlabeled chain), Michaelis-Menten analysis [2]: 0.027 s⁻¹
Substance: K63-linked di-Ub (from UniProt P0CG48 1-76; P0CG48 1-76) (complex)
